Assay results as given in patent US20210198319A1, “CYTOTOXIC PEPTIDES AND CONJUGATES THEREOF” (AEBI LTD., priority 2017, published 2021).
No end group written: not given here.

Key:
[1] = biological target: human eukaryotic elongation factor 2 (eEF2) (Homo sapiens, UniProt P13639); test: Cyclic peptide library tested for binding to eEF2; settings: after optimization process
Source text: Using the technique described in WO 2007/010525, a library of cyclic peptides was generated and tested for binding to human eukaryotic elongation factor 2 (eEF2).

cells = test: Toxicity to cells of library peptides; format: cell-based; settings: cyclic peptide library, after optimization process

Substance: Cys-Ser-Ala-Arg-Trp-Gly-Pro-Ile-Met-Pro-Trp-Cys (CSARWGPIMPWC; also: cyclic, ring type not given here) [GW2]
- binding to eEF2 (rank among library peptides) [1]: most potent peptide
- toxicity to cells (rank among library peptides) (cells): most potent peptide
